Measured values: PMC5069480, “MPP2 is a postsynaptic MAGUK scaffold protein that links SynCAM1 cell adhesion molecules to core components of the postsynaptic density” (Scientific Reports, 2016)

Biological target: T1, bacterially produced MPP2 PDZ-SH3-GK (MPP2 PSG module) (mouse)
T1 construct: source: E. coli Rosetta, purified (Ni-NTA, Superdex 75)
T1 sequence (Q9WV34 whole entry, looked up): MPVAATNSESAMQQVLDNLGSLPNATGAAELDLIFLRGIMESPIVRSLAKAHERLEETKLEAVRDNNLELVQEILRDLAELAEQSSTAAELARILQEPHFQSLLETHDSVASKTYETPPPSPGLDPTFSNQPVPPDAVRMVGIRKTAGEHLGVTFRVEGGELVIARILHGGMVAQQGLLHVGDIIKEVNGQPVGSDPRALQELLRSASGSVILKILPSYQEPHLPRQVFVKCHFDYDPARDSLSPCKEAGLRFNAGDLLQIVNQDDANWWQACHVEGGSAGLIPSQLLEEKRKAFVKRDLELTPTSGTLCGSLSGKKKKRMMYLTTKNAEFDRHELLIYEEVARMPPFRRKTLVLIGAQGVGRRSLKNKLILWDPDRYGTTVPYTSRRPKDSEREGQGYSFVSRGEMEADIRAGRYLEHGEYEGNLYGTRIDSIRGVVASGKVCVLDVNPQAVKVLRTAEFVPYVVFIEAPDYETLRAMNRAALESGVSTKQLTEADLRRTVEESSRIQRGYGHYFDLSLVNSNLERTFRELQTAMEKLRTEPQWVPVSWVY
Experiment: ITC; ITC200 at 25 °C; 200 mM NaCl, 20 mM Tris-HCl pH 7.5, 1 mM DTT; 350 μM mCherry-tagged peptide titrated into 55 μM MPP2 PSG module in the cell; single-site binding model
Settings: both partners purified

Q: Which Kd does the source give for GGGGSGGGGSGGGGSNSEEKKEYFI (domain or fragment) [bacterially produced mCherry-tagged SynCAM1 peptide (C-terminus)] here?
A: Its Kd is 3.1 ± 0.239 µM.
